Experiments:
[1] = target: huTREM-2 expressed as amino-terminal FLAG peptide fusion protein on transfected 293 cells (human) (UniProt Q9NZC2); assay: FACS of 293 cells transiently transfected with TREM-2-FLAG, stained with anti-FLAG mAb M2; isotype-matched control set to the lower quadrant
[2] = target: huTREM-1 expressed as amino-terminal FLAG peptide fusion protein on transfected COS-7 or 293 cells (human) (UniProt Q9NP99); assay: FACS of 293 cells transiently transfected with TREM-1-FLAG, stained with anti-FLAG mAb M2; isotype-matched control set to the lower quadrant

percentage of cells stained (upper right quadrant) [1]: 17.9% | percentage of cells stained (upper right quadrant) [2]: 21.5%
Substance: ANTI-FLAG mAb M2 (antibody)
